From article PMC11587196 (Cell reports, 2024)

B1: 3G5 monoclonal antibody (hIgG1 with Fc-silent LALA mutations) (antibody, V domains shown)
VH: EVQLVESGGVLVKPGGSLKLSCAASGFTFSDYAMSWVRQTPEKRLEWVATITDGGSYAYYTDDVKGRFTVSRDNARNNLFLQMSHLRSEDTGIYYCSRDRWPYYFDFWGRGTTLTVSS
VL: DIQMTQSPTSLSVSVGETVTITCRISENIYSNLAWYQQKEGKSPQLLVYAATKLADGVPSRFSGSGSGTQYSLKINSLQSEDFGNYYCQHFWTTPRTFGGGTKVEIK
B2: 3G5 Fab (Fab, V domains shown)
VH: B1 VH
VL: B1 VL

Experiments:
Assay in all cases: SPR
IL-1RAcP domain 1/2 = IL-1RAcP domain 1/2 (Homo sapiens, UniProt Q9NPH3)
[1] = molecular target: IL-1 receptor accessory protein (IL-1RAcP) ectodomain (Homo sapiens (Human)., UniProt Q9NPH3, glycosylated (seven putative glycosylation sites))
IL-1RAcP domain 3 = IL-1RAcP domain 3 (Homo sapiens, UniProt Q9NPH3)
Fc-fused IL-1RAcP Y249A = Fc-fused IL-1RAcP Y249A (Homo sapiens, UniProt Q9NPH3, Y249A)
Fc-fused IL-1RAcP V224A = Fc-fused IL-1RAcP V224A (Homo sapiens, UniProt Q9NPH3, V224A)
Fc-fused IL-1RAcP H226A = Fc-fused IL-1RAcP H226A (Homo sapiens, UniProt Q9NPH3, H226A)
Fc-fused IL-1RAcP R286A = Fc-fused IL-1RAcP R286A (Homo sapiens, UniProt Q9NPH3, R286A)
Chain of Fc-fused IL-1RAcP R286A (Q9NPH3 21-367 R306A): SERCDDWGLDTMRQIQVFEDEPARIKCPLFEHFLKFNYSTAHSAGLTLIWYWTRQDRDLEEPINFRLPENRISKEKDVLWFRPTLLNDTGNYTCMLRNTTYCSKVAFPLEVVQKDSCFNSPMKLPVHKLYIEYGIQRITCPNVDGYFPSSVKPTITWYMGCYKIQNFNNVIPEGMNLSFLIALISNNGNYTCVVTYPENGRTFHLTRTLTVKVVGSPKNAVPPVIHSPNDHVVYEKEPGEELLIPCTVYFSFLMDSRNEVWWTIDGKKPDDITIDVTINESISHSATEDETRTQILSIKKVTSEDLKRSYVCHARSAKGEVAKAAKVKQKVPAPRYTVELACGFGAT

Chain of IL-1 receptor accessory protein (IL-1RAcP) ectodomain (Q9NPH3 21-367): as the sequence (Q9NPH3 21-367 R306A) above, with A286R counted along it
Chain of Fc-fused IL-1RAcP Y249A (Q9NPH3 21-367 Y269A): as the sequence (Q9NPH3 21-367 R306A) above, with Y249A, A286R counted along it
Chain of Fc-fused IL-1RAcP H226A (Q9NPH3 21-367 H246A): as the sequence (Q9NPH3 21-367 R306A) above, with H226A, A286R counted along it
Chain of Fc-fused IL-1RAcP V224A (Q9NPH3 21-367 V244A): as the sequence (Q9NPH3 21-367 R306A) above, with V224A, A286R counted along it

Binder | binding result (IL-1RAcP domain 1/2) | Kd [1] [nM] | koff [1] [s⁻¹] | Kd (IL-1RAcP domain 3) [nM] | ΔΔG (change in binding free energy against wild-type IL-1RacP-Fc) (Fc-fused IL-1RAcP Y249A) [kcal/mol] | ΔΔG (change in binding free energy against wild-type IL-1RacP-Fc) (Fc-fused IL-1RAcP V224A) [kcal/mol] | ΔΔG (change in binding free energy against wild-type IL-1RacP-Fc) (Fc-fused IL-1RAcP H226A) [kcal/mol] | ΔΔG (change in binding free energy against wild-type IL-1RacP-Fc) (Fc-fused IL-1RAcP R286A) [kcal/mol]
B1 | no binding (tested: 1.25nM to 20nM) | 0.141 | 0.000225 | 0.118 |  |  |  | 
B2 |  |  |  |  | 1.85 | 1.3 | 2.4 | 0.3
